Experimental findings from PMC6719084 (2019) are described below.

What all share (assay): FP
Assay [1] concerns the target T1, MCL-1ΔNΔC.
T1 chain: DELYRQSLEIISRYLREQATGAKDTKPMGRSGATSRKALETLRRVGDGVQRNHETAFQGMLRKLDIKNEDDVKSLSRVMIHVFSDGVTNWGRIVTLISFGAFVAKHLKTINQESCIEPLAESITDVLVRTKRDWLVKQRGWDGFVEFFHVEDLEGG

In assay [2] the target is BCL-XLΔC.
In assay [3] the target is BCL-2ΔC.
In assay [4] the target is T2, BCL-WΔC.
T2 chain: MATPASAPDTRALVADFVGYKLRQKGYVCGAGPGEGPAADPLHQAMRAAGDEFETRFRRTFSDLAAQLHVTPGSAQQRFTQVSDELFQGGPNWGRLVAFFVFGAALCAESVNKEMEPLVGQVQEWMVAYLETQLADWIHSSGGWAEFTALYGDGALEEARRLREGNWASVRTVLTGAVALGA

B1: FITC-BIM_(A,cath,K)PA2 (BIMA, valine-citrulline cathepsin-cleavable linker, five lysines, DSPE-PEG(2000) lipid tail) (peptide)
chain: IWIAQELRRIGDEFNAYYARRVXKKKKK
modifications: fluorescein isothiocyanate (FITC) on the N-terminus; citrulline after the linker's valine (written X in the letters); DSPE-PEG(2000)-succinyl lipid tail on the side chain of the C-terminal lysine
Regarding B1, the Kd (usually the concentration at which binding is half-saturated) worked out at 453 nM in assay [1], 165 nM in assay [2], 187 nM in assay [3] and 247 nM in assay [4].
